The text below walks through data of article doi:10.1101/2024.01.26.576347.

pEC50: −log10 of the molar value.

The target of experiment [1] is α-tubulin (human (endogenous in VTC-037 GSCs)) (UniProt P68363). Kind of experiment: cellular thermal shift assay.
Experiment [2] concerns the target β-tubulin (human (endogenous in VTC-001 and VTC-037 GSCs)) (UniProt P07437). Kind of experiment: cellular thermal shift assay.

Sequence of α-tubulin (human (endogenous in VTC-037 GSCs)) (P68363 whole entry): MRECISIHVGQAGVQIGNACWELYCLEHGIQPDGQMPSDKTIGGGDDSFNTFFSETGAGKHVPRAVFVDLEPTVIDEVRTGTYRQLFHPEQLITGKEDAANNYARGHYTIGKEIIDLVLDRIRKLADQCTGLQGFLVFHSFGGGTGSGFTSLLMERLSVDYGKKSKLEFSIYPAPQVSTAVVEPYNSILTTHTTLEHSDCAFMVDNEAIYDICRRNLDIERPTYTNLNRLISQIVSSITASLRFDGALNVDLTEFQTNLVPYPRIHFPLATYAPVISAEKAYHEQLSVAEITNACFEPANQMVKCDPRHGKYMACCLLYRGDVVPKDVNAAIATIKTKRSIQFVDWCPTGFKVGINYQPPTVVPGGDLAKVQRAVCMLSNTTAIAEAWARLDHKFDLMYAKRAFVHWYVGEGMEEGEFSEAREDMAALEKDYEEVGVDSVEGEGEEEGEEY

On to “JM2 (juxtamembrane 2), Cx43 mimetic peptide (from UniProt P17302 231-245)”, for which the pEC50 (in general, the negative decadic logarithm of the EC50, by convention in mol/L) in experiment [1] is 8.08; in experiment [2] it was 8.10.
